Substrate in this series: CCC(CSC[C@@H](NC(=O)CC[C@H](N)C(=O)O)C(=O)NCC(=O)O)C(=O)c1ccc(OCC(=O)O)c(Cl)c1Cl
Briefly: TP_TRANSPORTER: uptake in membrane vesicles from S1(MRP) cells. Type of series: functional, cell membranes, Membrane vesicle.

B1: Multidrug resistance-associated protein 1 (Homo sapiens) (protein)
chain: MALRGFCSADGSDPLWDWNVTWNTSNPDFTKCFQNTVLVWVPCFYLWACFPFYFLYLSRHDRGYIQMTPLNKTKTALGFLLWIVCWADLFYSFWERSRGIFLAPVFLVSPTLLGITMLLATFLIQLERRKGVQSSGIMLTFWLVALVCALAILRSKIMTALKEDAQVDLFRDITFYVYFSLLLIQLVLSCFSDRSPLFSETIHDPNPCPESSASFLSRITFWWITGLIVRGYRQPLEGSDLWSLNKEDTSEQVVPVLVKNWKKECAKTRKQPVKVVYSSKDPAQPKESSKVDANEEVEALIVKSPQKEWNPSLFKVLYKTFGPYFLMSFFFKAIHDLMMFSGPQILKLLIKFVNDTKAPDWQGYFYTVLLFVTACLQTLVLHQYFHICFVSGMRIKTAVIGAVYRKALVITNSARKSSTVGEIVNLMSVDAQRFMDLATYINMIWSAPLQVILALYLLWLNLGPSVLAGVAVMVLMVPVNAVMAMKTKTYQVAHMKSKDNRIKLMNEILNGIKVLKLYAWELAFKDKVLAIRQEELKVLKKSAYLSAVGTFTWVCTPFLVALCTFAVYVTIDENNILDAQTAFVSLALFNILRFPLNILPMVISSIVQASVSLKRLRIFLSHEELEPDSIERRPVKDGGGTNSITVRNATFTWARSDPPTLNGITFSIPEGALVAVVGQVGCGKSSLLSALLAEMDKVEGHVAIKGSVAYVPQQAWIQNDSLRENILFGCQLEEPYYRSVIQACALLPDLEILPSGDRTEIGEKGVNLSGGQKQRVSLARAVYSNADIYLFDDPLSAVDAHVGKHIFENVIGPKGMLKNKTRILVTHSMSYLPQVDVIIVMSGGKISEMGSYQELLARDGAFAEFLRTYASTEQEQDAEENGVTGVSGPGKEAKQMENGMLVTDSAGKQLQRQLSSSSSYSGDISRHHNSTAELQKAEAKKEETWKLMEADKAQTGQVKLSVYWDYMKAIGLFISFLSIFLFMCNHVSALASNYWLSLWTDDPIVNGTQEHTKVRLSVYGALGISQGIAVFGYSMAVSIGGILASRCLHVDLLHSILRSPMSFFERTPSGNLVNRFSKELDTVDSMIPEVIKMFMGSLFNVIGACIVILLATPIAAIIIPPLGLIYFFVQRFYVASSRQLKRLESVSRSPVYSHFNETLLGVSVIRAFEEQERFIHQSDLKVDENQKAYYPSIVANRWLAVRLECVGNCIVLFAALFAVISRHSLSAGLVGLSVSYSLQVTTYLNWLVRMSSEMETNIVAVERLKEYSETEKEAPWQIQETAPPSSWPQVGRVEFRNYCLRYREDLDFVLRHINVTINGGEKVGIVGRTGAGKSSLTLGLFRINESAEGEIIIDGINIAKIGLHDLRFKITIIPQDPVLFSGSLRMNLDPFSQYSDEEVWTSLELAHLKDFVSALPDKLDHECAEGGENLSVGQRQLVCLARALLRKTKILVLDEATAAVDLETDDLIQSTIRTQFEDCTVLTIAHRLNTIMDYTRVIVLDKGEIQEYGAPSDLLQQRGLFYSMAKDAGLV
As a reminder, the Km is the substrate concentration at which the rate is half of its maximum. B1: the Km turned out to be 5 µM.

The record behind these values is ChEMBL document CHEMBL2074303, “Transport of the glutathione conjugate of ethacrynic acid by the human multidrug resistance protein MRP” (FEBS Lett, 1996).
